Test results published in patent US20180037644A1 (Pfizer, published 2018).
Like-named read-outs stand apart in the source and are kept apart here. Values belong to the binder of their own block, whether it stands above or below them.

Legend:
human IL-33 WT (R&D) [1] = molecular target: T1, human IL-33 WT (R&D) (human, UniProt O95760 112-270); assay: cell-based or functional assay
T1 sequence: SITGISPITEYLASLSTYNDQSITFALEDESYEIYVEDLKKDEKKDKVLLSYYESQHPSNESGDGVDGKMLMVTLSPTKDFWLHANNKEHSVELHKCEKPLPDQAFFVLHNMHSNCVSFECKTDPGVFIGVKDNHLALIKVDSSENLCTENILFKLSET

human IL-33 (mm2) [2] = molecular target: T2, human IL-33 (mm2) (human, UniProt O95760 112-270); assay: cell-based or functional assay
T2 chain: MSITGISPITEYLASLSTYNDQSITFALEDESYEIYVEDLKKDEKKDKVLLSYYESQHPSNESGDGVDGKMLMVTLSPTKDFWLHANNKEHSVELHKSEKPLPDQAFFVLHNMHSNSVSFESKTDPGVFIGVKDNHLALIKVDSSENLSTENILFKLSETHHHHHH

[3] = molecular target: T3, wild-type cynomolgus monkey IL-33 (cynomolgus monkey); assay: cell-based or functional assay
T3 chain: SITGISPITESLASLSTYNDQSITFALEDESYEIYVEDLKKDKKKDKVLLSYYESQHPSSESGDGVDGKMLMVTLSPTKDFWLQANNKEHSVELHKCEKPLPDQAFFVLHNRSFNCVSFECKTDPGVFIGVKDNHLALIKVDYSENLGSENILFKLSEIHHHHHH

[4] = molecular target: T4, cynomolgus monkey IL-33 (cys mut) (cynomolgus monkey); assay: cell-based or functional assay
T4 chain: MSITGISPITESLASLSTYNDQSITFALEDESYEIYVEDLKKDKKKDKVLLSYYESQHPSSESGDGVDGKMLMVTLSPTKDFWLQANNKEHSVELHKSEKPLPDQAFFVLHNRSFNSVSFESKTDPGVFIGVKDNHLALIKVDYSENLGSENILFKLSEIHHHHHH

human IL-33 WT (R&D) [5] = molecular target: T1, human IL-33 WT (R&D); assay: cell-based or functional assay; remark: listed apart in the source
human IL-33 (mm2) [6] = molecular target: T2, human IL-33 (mm2); assay: cell-based or functional assay
[7] = molecular target: T3, wild-type cynomolgus monkey IL-33; assay: cell-based or functional assay
[8] = molecular target: T4, cynomolgus monkey IL-33 (cys mut); assay: cell-based or functional assay
human IL-33 WT (R&D) [9] = molecular target: T1, human IL-33 WT (R&D); assay: cell-based or functional assay; remark: listed apart in the source
human IL-33 (mm2) [10] = molecular target: T2, human IL-33 (mm2); assay: cell-based or functional assay
[11] = molecular target: T4, cynomolgus monkey IL-33 (cys mut); assay: cell-based or functional assay
human IL-33 (mm2) [12] = molecular target: T2, human IL-33 (mm2); assay: cell-based or functional assay
[13] = molecular target: T4, cynomolgus monkey IL-33 (cys mut); assay: cell-based or functional assay
human IL-33 WT (R&D) [14] = molecular target: T1, human IL-33 WT (R&D); assay: cell-based or functional assay; remark: listed apart in the source
human IL-33 (mm2) [15] = molecular target: T2, human IL-33 (mm2); assay: cell-based or functional assay
human IL-33 (mm2) [16] = molecular target: T2, human IL-33 (mm2); assay: cell-based or functional assay
human IL-33 WT (R&D) [17] = molecular target: T1, human IL-33 WT (R&D); assay: cell-based or functional assay; remark: listed apart in the source
human IL-33 (mm2) [18] = molecular target: T2, human IL-33 (mm2); assay: cell-based or functional assay
[19] = molecular target: T4, cynomolgus monkey IL-33 (cys mut); assay: cell-based or functional assay
[20] = molecular target: T5, human IL-33 WT, reduced with DTT (human, UniProt O95760 112-270); assay: SPR, IL-33 amine-coupled to CM5, Fab in solution, 37 C, Experiment 2
T5 construct: Wild-type cysteines, FLAG tag in the entry; reduced with 3 mM DTT before use; also called huIL33 wt; hu IL-33 (WT + DTT)
T5 sequence: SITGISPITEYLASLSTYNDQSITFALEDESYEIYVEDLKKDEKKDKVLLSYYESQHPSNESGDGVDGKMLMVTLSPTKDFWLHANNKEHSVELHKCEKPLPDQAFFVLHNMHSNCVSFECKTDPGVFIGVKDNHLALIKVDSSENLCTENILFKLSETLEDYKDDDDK
Procedure: (§1) Biacore kinetic assays were conducted at 37° C. at a collection rate of 1 Hz on a Biacore T200 instrument (GE Healthcare). Reduced and non-reduced wild-type human IL-33 and reduced wild-type cynomolgus monkey IL-33 were covalently coupled to a CM5 sensor chip (catalogue number BR100530, GE Healthcare) using an amine coupling kit (catalogue number BR100050, GE Healthcare) according to the manufacturer's protocol. Flow cell 1 was activated and blocked for use as a reference flow cell. […] The dilution and running buffer was HBS-EP+(10 mM HEPES pH 7.4, 0.15M NaCl, 3 mM EDTA, 0.05% P-20). Rate constants and affinities were determined by fitting the resulting sensorgram data to a 1:1 model in Biacore T200 Evaluation software version 1.0 (GE Healthcare). […] Kinetic properties of the bivalent IgG cannot be directly compared to those of monovalent Fab fragments and are not presented here.

[21] = molecular target: T3, wild-type cynomolgus monkey IL-33; assay: as above
Procedure: as §1

[22] = molecular target: T3, wild-type cynomolgus monkey IL-33; assay: SPR, Experiment 2; reference: human IL-33 (WT + DTT)
Procedure: as §1

B2: IL33-10 (antibody, human IgG1, kappa)
heavy: not shown
light: DIQMTQSPSSLSASVGDRVTITCKASQNINKHLDWYQQKPGKAPKLLIYFTNNLQTGVPSRFSGSGSGTDFTLTISSLQPEDFATYYCFQYNNGWTFGGGTKVEIKRTVAAPSVFIFPPSDEQLKSGTASVVCLLNNFYPREAKVQWKVDNALQSGNSQESVTEQDSKDSTYSLSSTLTLSKADYEKHKVYACEVTHQGLSSPVTKSFNRGEC
IC50, HEK293 ST2 NFkB WT IL-33 (human IL-33 WT (R&D) [9]): 117 pM
IC50, HEK293 ST2 NFkB mm2 (human IL-33 (mm2) [10]): 31 pM
IC50, whole blood IFNγ (human IL-33 (mm2) [10]): 121 pM
IC50, HEK293 ST2 NFkB cyno IL-33 [11]: 59 pM
IC50, HEK293 ST2 NFkB (human IL-33 (mm2) [12]): 17 pM
IC50, HEK293 ST2 NFkB [13]: 132 pM

B3: IL33-167LS (antibody, human IgG1, kappa)
heavy: EVQLVESGGGLVQPGGSLRLSCAASGFTFSSYWMYWVRQAPGKGLEWVASITPNAGEDYYPDSVKGRFTISRDNAKNSLYLQMNSLRAEDTAVYYCARGHYYYTSYSLGYWGQGTLVTVSSASTKGPSVFPLAPSSKSTSGGTAALGCLVKDYFPEPVTVSWNSGALTSGVHTFPAVLQSSGLYSLSSVVTVPSSSLGTQTYICNVNHKPSNTKVDKKVEPKSCDKTHTCPPCPAPEAAGAPSVFLFPPKPKDTLMISRTPEVTCVVVDVSHEDPEVKFNWYVDGVEVHNAKTKPREEQYNSTYRVVSVLTVLHQDWLNGKEYKCKVSNKALPAPIEKTISKAKGQPREPQVYTLPPSREEMTKNQVSLTCLVKGFYPSDIAVEWESNGQPENNYKTTPPVLDSDGSFFLYSKLTVDKSRWQQGNVFSCSVLHEALHSHYTQKSLSLSPG
light: B2 light
IC50, human whole blood (human IL-33 WT (R&D) [14]): 451 pM
IC50, human whole blood (human IL-33 (mm2) [15]): 13 pM
IC50, HEK293 ST2 NFkB (DTT-pretreated IL-33) (human IL-33 WT (R&D) [1]): 250 pM
IC50, HEK293 ST2 NFkB (human IL-33 (mm2) [2]): 37 pM
Cynomolgus monkey:human IC50 ratio: wild-type IL-33 [3]: 6.2
IC50, HEK293 ST2 NFkB (DTT-pretreated IL-33) [3]: 1560 pM
Cynomolgus monkey:human IC50 ratio: cysteine mutant IL-33 [4]: 1
IC50, HEK293 ST2 NFkB [4]: 36 pM
IC50, IFN-γ production in human PBMC (human IL-33 (mm2) [16]): 1.1 pM
IC50, HEK293 ST2 NFkB (human IL-33 WT (R&D) [17]): 685 pM
IC50, HEK293 ST2 NFkB (human IL-33 (mm2) [18]): 130 pM
IC50, HEK293 ST2 NFkB [19]: 162 pM

Continued, values first:

IC50, HEK293 ST2 NFkB (DTT-pretreated IL-33) (human IL-33 WT (R&D) [1]): 61 pM
IC50, HEK293 ST2 NFkB (human IL-33 (mm2) [2]): 18 pM
Cynomolgus monkey:human IC50 ratio: wild-type IL-33 [3]: 27.1
IC50, HEK293 ST2 NFkB (DTT-pretreated IL-33) [3]: 1640 pM
Cynomolgus monkey:human IC50 ratio: cysteine mutant IL-33 [4]: 32.5
IC50, HEK293 ST2 NFkB [4]: 590 pM
IC50, HEK293 ST2 NFkB (human IL-33 WT (R&D) [5]): 21 pM
IC50, HEK293 ST2 NFkB (human IL-33 (mm2) [6]): 7 pM
Cynomolgus monkey:human IC50 ratio: wild-type IL-33 [7]: 104
IC50, HEK293 ST2 NFkB [7]: 2180 pM
Cynomolgus monkey:human IC50 ratio: cysteine mutant IL-33 [8]: 29.2
IC50, HEK293 ST2 NFkB [8]: 213 pM
B1: IL33-310 (antibody, human IgG4 S228P, kappa, V domains shown)
VH: EVQLVESGGGLVQPGGSLRLSCAASGFTFSSFSMSWVRQAPGKGLEWVATISGGKTFTDYVDSVKGRFTISRDDSKNTLYLQMNSLRAEDTAVYYCTRANYGNWFFEVWGQGTLVTVSS
VL: EIVLTQSPATLSLSPGERATLSCRASESVAKYGLSLLNWFQQKPGQPPRLLIFAASNRGSGIPARFSGSGSGTDFTLTISSLEPEDFAVYYCQQSKEVPFTFGQGTKVEIKR

Kd [20]: 28 pM
koff [20]: 8.07e-05 s⁻¹
kon [20]: 2.89e+06 M⁻¹ s⁻¹
Kd [21]: 1620 pM
koff [21]: 0.0038 s⁻¹
kon [21]: 2.58e+06 M⁻¹ s⁻¹
Ratio of cynomolgus monkey KD/human KD [22]: 57.8
B4: IL33-265 Fab (Fab, V domains shown)
VH: EVQLVESGGNLEQPGGSLRLSCTASGFTFSRSAMNWVRRAPGKGLEWVSGISGSGGRTYYADSVKGRFTISRDNSKNTLYLQMNSLSAEDTAAYYCAKDSYTTSWYGGMDVWGHGTTVTVSS
VL: DIQMTQSPSSVSASVGDRVTITCRASQGIFSWLAWYQQKPGKAPKLLIYAASSLQSGVPSRFSGSGSGTDFTLTISSLQPEDFAIYYCQQANSVPITFGQGTRLEIKR
notes: Fab fragment
